According to PMC5383425, “Differential CLE peptide perception by plant receptors implicated from structural and functional analyses of TDIF-TDR interactions” (PLoS ONE, 2017):
Substitutions are numbered along the chain they refer to. Square brackets hold non-standard residues; d marks the D form. Ends that are not written are not given here. Hyp = O=C(O)[C@@H]1C[C@@H](O)CN1

Assays:
[1] = biological target: T1, extracellular domain of A. thaliana TDR (residues 30-642) (Arabidopsis thaliana, UniProt Q9FII5 30-642, N-glycosylated at N111, N356, N378, N471 and N525 (one GlcNAc visible on each in the structures)); assay: ITC
T1 chain: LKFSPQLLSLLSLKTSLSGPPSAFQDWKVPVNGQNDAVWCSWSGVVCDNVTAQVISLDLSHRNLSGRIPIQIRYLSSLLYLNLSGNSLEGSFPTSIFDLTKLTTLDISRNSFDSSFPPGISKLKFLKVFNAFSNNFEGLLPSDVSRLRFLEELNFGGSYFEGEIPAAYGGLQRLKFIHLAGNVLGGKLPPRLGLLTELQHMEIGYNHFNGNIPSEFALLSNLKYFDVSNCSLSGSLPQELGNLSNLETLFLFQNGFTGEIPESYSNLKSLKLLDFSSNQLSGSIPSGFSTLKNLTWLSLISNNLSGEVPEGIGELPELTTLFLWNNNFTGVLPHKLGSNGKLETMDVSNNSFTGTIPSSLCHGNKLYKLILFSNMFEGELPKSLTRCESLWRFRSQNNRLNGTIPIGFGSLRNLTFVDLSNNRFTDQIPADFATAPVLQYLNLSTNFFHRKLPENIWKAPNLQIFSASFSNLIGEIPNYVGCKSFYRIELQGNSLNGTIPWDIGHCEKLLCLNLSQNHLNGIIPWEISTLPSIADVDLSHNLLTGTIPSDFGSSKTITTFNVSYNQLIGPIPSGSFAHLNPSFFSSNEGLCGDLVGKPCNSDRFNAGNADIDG

[2] = biological target: T2, ecdTDR F279 alanine mutant (Arabidopsis thaliana, UniProt Q9FII5 30-642, alanine substitution of F279); assay: ITC
T2 sequence: T1 chain with F250A

[3] = biological target: T3, ecdTDR Y234 alanine mutant (Arabidopsis thaliana, UniProt Q9FII5 30-642, alanine substitution of Y234); assay: ITC
T3 sequence: T1 chain with Y205A

[4] = biological target: T4, extracellular domain of A. thaliana TDR (residues 30-642) (Arabidopsis thaliana, UniProt Q9FII5 30-642, N-glycosylated at N111, N356, N378, N471 and N525 (one GlcNAc visible on each in the structures)); assay: crystal structure; ecdTDR 5 mg/ml (42 μM) mixed with 420 μM TDIF, 4°C for 1 hour; crystals at 18°C in 200 mM MgSO4, 20% PEG 3350; 2.75 Å; conditions: both partners purified
T4 construct: TDR/PXY (TDIF RECEPTOR / PHLOEM INTERCALATED WITH XYLEM) of A. thaliana, extracellular domain, residues 30-642; the structure models hold residues 40-625; also called ecdTDR; TDR-ECD; source: High Five insect cells (baculovirus), secreted, purified (Ni-NTA, size-exclusion chromatography)
T4 sequence (looked up): T1 chain

B1: Tracheary Element Differentiation Inhibitory Factor (TDIF) peptide (peptide)
peptide: HEV[Hyp]SG[Hyp]NPISN
notes: TDIF, the 12-residue CLE peptide processed from CLE41 and CLE44 of A. thaliana; printed as HEV(Hyp)SG(Hyp)NPISN; numbers count on: the 12-residue peptide; CLE44 encodes the same peptide; also called wild type TDIF; wtTDIF; source: synthetic peptide (peptide 2.0)
In the case of B1, the Kd [1] is reported as 103 nM, the Kd [2] is reported as 307 nM and the Kd [3] is reported as 1650 nM. B1: binds [4].
